Measured values: the Immune Epitope Database (IEDB)

Key:
HLA-A*01:01 = assay: IEDB peptide-MHC binding, purified MHC/direct/fluorescence; filed as Kd, often an IC50 or EC50 that approximates it; ≥ and ≤ were set here for values at or beyond the usual limits of such assays
HLA-A*26:01 = assay: as above
HLA-A*02:01 = assay: as above
HLA-B*44:02 = assay: as above
HLA-B*15:01 = assay: as above
HLA-A*31:01 = assay: as above
HLA-A*11:01 = assay: as above
HLA-A*03:01 = assay: as above
HLA-B*58:01 [1] = assay: as above
HLA-B*27:05 = assay: as above
HLA-A*24:03 = assay: as above
HLA-B*07:02 = assay: as above
HLA-A*69:01 = assay: as above
HLA-B*40:01 = assay: as above
HLA-B*08:01 = assay: as above
HLA-A*02:50 = assay: IEDB peptide-MHC binding, purified MHC/competitive/fluorescence; filed as Kd, often an IC50 or EC50 that approximates it; ≥ and ≤ were set here for values at or beyond the usual limits of such assays
HLA-B*35:01 = assay: IEDB peptide-MHC binding, purified MHC/direct/fluorescence; filed as Kd, often an IC50 or EC50 that approximates it; ≥ and ≤ were set here for values at or beyond the usual limits of such assays
HLA-B*57:01 [2] = assay: IEDB peptide-MHC binding, purified MHC/competitive/radioactivity; filed as Kd, often an IC50 or EC50 that approximates it; ≥ and ≤ were set here for values at or beyond the usual limits of such assays
HLA-B*58:01 [3] = assay: as above
HLA-B*51:01 = assay: IEDB peptide-MHC binding, purified MHC/direct/fluorescence; filed as Kd, often an IC50 or EC50 that approximates it; ≥ and ≤ were set here for values at or beyond the usual limits of such assays; conditions: source organism: Tetraodon nigroviridis
HLA-A*32:01 = assay: IEDB peptide-MHC binding, purified MHC/competitive/radioactivity; filed as Kd, often an IC50 or EC50 that approximates it; ≥ and ≤ were set here for values at or beyond the usual limits of such assays; conditions: source organism: Dengue virus 4 Philippines/H241/1956
HLA-B*57:01 [4] = assay: IEDB peptide-MHC binding, purified MHC/direct/fluorescence; filed as Kd, often an IC50 or EC50 that approximates it; ≥ and ≤ were set here for values at or beyond the usual limits of such assays; conditions: source organism: dengue virus type 4
HLA-B*15:17 = assay: as above; conditions: source organism: dengue virus type 4
HLA-A*32:15 = assay: IEDB peptide-MHC binding, purified MHC/competitive/fluorescence; filed as Kd, often an IC50 or EC50 that approximates it; ≥ and ≤ were set here for values at or beyond the usual limits of such assays; conditions: source organism: dengue virus type 4
HLA-B*45:06 = assay: as above; conditions: source organism: dengue virus type 4
HLA-B*83:01 = assay: as above; conditions: source organism: dengue virus type 4
HLA-B*15:42 = assay: as above; conditions: source organism: dengue virus type 4
HLA-A*32:07 = assay: as above; conditions: source organism: dengue virus type 4
HLA-A*68:23 = assay: as above; conditions: source organism: dengue virus type 4
HLA-C*14:02 = assay: as above; conditions: source organism: dengue virus type 4
HLA-A*30:01 = assay: IEDB peptide-MHC binding, purified MHC/direct/fluorescence; filed as Kd, often an IC50 or EC50 that approximates it; ≥ and ≤ were set here for values at or beyond the usual limits of such assays; conditions: source organism: Giardia lamblia ATCC 50803
HLA-B*18:01 = assay: as above; conditions: source organism: Influenza A virus (A/duck/Mongolia/47/2001(H7N1))
HLA-B*46:01 = assay: as above; conditions: source organism: Influenza A virus (A/duck/Mongolia/47/2001(H7N1))
HLA-A*24:02 = assay: as above; conditions: source organism: Influenza A virus (A/duck/Mongolia/47/2001(H7N1))
HLA-B*39:01 = assay: as above; conditions: source organism: Influenza A virus (A/duck/Mongolia/47/2001(H7N1))
[5] = source organism: Brucella melitensis
[6] = source organism: Rickettsia typhi
[7] = source organism: Salmonella enterica
[8] = source organism: Dengue virus 1 Brazil/97-11/1997
[9] = source organism: Yersinia pestis
[10] = source organism: Dengue virus 2 Peru/IQT2913/1996
[11] = source organism: Vibrio parahaemolyticus
[12] = source organism: Escherichia coli O157:H7
[13] = source organism: Giardia lamblia ATCC 50803
[14] = source organism: Influenza A virus (A/duck/Mongolia/47/2001(H7N1))
[15] = source organism: Camelpox virus M-96

ALFEDYPGC
Kd (HLA-A*01:01; [5]): ≥ 20 µM | Kd (HLA-A*26:01; [5]): ≥ 20 µM | Kd (HLA-A*02:01; [5]): 0.354 µM | Kd (HLA-B*44:02; [5]): ≥ 20 µM | Kd (HLA-B*15:01; [5]): ≥ 20 µM | Kd (HLA-A*31:01; [5]): ≥ 20 µM | Kd (HLA-A*11:01; [5]): ≥ 20 µM | Kd (HLA-A*03:01; [5]): ≥ 20 µM | Kd (HLA-B*58:01 [1]; [5]): ≥ 20 µM | Kd (HLA-B*27:05; [5]): ≥ 20 µM | Kd (HLA-A*24:03; [5]): ≥ 20 µM | Kd (HLA-B*07:02; [5]): ≥ 20 µM | Kd (HLA-A*69:01; [5]): ≥ 20 µM | Kd (HLA-B*40:01; [5]): ≥ 20 µM | Kd (HLA-B*08:01; [5]): ≥ 20 µM | Kd (HLA-A*02:50; [5]): 0.0062 µM

APILVVSGI
Kd (HLA-A*01:01; [6]): ≥ 20 µM | Kd (HLA-A*26:01; [6]): ≥ 20 µM | Kd (HLA-A*02:01; [6]): ≥ 20 µM | Kd (HLA-B*44:02; [6]): ≥ 20 µM | Kd (HLA-B*15:01; [6]): ≥ 20 µM | Kd (HLA-A*31:01; [6]): ≥ 20 µM | Kd (HLA-A*11:01; [6]): ≥ 20 µM | Kd (HLA-A*03:01; [6]): ≥ 20 µM | Kd (HLA-B*58:01 [1]; [6]): ≥ 20 µM | Kd (HLA-B*27:05; [6]): ≥ 20 µM | Kd (HLA-A*24:03; [6]): 14.8 µM | Kd (HLA-B*07:02; [6]): 0.157 µM | Kd (HLA-A*69:01; [6]): ≥ 20 µM | Kd (HLA-B*40:01; [6]): ≥ 20 µM | Kd (HLA-B*08:01; [6]): ≥ 20 µM | Kd (HLA-B*35:01; [6]): 0.289 µM

ATGDYVAFV
Kd (HLA-A*02:01; [7]): 0.067 µM | Kd (HLA-A*69:01; [7]): 0.0158 µM | Kd (HLA-A*02:50; source organism: Salmonella enterica subsp. enterica serovar Typhi): 0.0009 µM

ATLFVWYFW
Kd (HLA-B*57:01 [2]; [8]): 0.115 µM | Kd (HLA-B*58:01 [3]; [8]): 0.2 µM

GMFIIFIPI
Kd (HLA-A*02:01; [9]): 8.84 µM | Kd (HLA-A*69:01; [9]): 5.42 µM | Kd (HLA-A*02:50; source organism: Yersinia pestis Nepal516): 0.395 µM

LAIPVTMTL
Kd (HLA-B*58:01 [3]; source organism: Dengue virus 4 Philippines/H241/1956): 0.00134 µM

LGSQEGAMHT
Kd (HLA-B*58:01 [3]; source organism: Dengue virus 2 Jamaica/1409/1983): 0.548 µM

LPAQGLIEF
Kd (HLA-B*51:01): 11.3 µM

LTSKELMMTT
Kd (HLA-B*57:01 [2]; [10]): 0.246 µM | Kd (HLA-B*58:01 [3]; [10]): 0.422 µM

MSSAMSMMH
Kd (HLA-A*01:01; [11]): 6.94 µM | Kd (HLA-A*26:01; [11]): ≥ 20 µM | Kd (HLA-A*02:01; [11]): ≥ 20 µM | Kd (HLA-B*44:02; [11]): ≥ 20 µM | Kd (HLA-B*15:01; [11]): 2.58 µM | Kd (HLA-A*11:01; [11]): 0.154 µM | Kd (HLA-A*03:01; [11]): 0.0661 µM | Kd (HLA-B*58:01 [1]; [11]): 0.624 µM | Kd (HLA-B*27:05; [11]): ≥ 20 µM | Kd (HLA-A*24:03; [11]): 5.11 µM | Kd (HLA-B*07:02; [11]): ≥ 20 µM | Kd (HLA-A*69:01; [11]): ≥ 20 µM | Kd (HLA-B*40:01; [11]): ≥ 20 µM | Kd (HLA-B*08:01; [11]): ≥ 20 µM | Kd (HLA-B*35:01; [11]): 0.0728 µM

RPPRRGDKF
Kd (HLA-A*01:01; [12]): ≥ 20 µM | Kd (HLA-A*26:01; [12]): ≥ 20 µM | Kd (HLA-A*02:01; [12]): ≥ 20 µM | Kd (HLA-B*44:02; [12]): ≥ 20 µM | Kd (HLA-B*15:01; [12]): ≥ 20 µM | Kd (HLA-A*31:01; [12]): ≥ 20 µM | Kd (HLA-A*11:01; [12]): ≥ 20 µM | Kd (HLA-A*03:01; [12]): ≥ 20 µM | Kd (HLA-B*58:01 [1]; [12]): ≥ 20 µM | Kd (HLA-B*27:05; [12]): ≥ 20 µM | Kd (HLA-B*07:02; [12]): 0.223 µM | Kd (HLA-A*69:01; [12]): ≥ 20 µM | Kd (HLA-B*40:01; [12]): ≥ 20 µM | Kd (HLA-B*35:01; [12]): 1.37 µM

STMPLVMAW
Kd (HLA-A*32:01): 0.00169 µM | Kd (HLA-B*57:01 [4]): 0.0052 µM | Kd (HLA-B*15:17): ≤ 0.001 µM | Kd (HLA-A*32:15): 0.0227 µM | Kd (HLA-B*45:06): ≥ 5 µM | Kd (HLA-B*83:01): 1.14 µM | Kd (HLA-B*15:42): ≥ 5 µM | Kd (HLA-A*32:07): ≤ 0.001 µM | Kd (HLA-A*68:23): 0.0006 µM | Kd (HLA-C*14:02): 0.0106 µM

SVKERGPAY
Kd (HLA-A*01:01; [13]): ≥ 20 µM | Kd (HLA-A*26:01; [13]): 0.0246 µM | Kd (HLA-A*02:01; [13]): ≥ 20 µM | Kd (HLA-B*44:02; [13]): ≥ 20 µM | Kd (HLA-B*15:01; [13]): 0.179 µM | Kd (HLA-A*31:01; [13]): ≥ 20 µM | Kd (HLA-A*11:01; [13]): 0.105 µM | Kd (HLA-A*03:01; [13]): 0.61 µM | Kd (HLA-B*58:01 [1]; [13]): ≥ 20 µM | Kd (HLA-B*27:05; [13]): ≥ 20 µM | Kd (HLA-A*30:01): 0.0354 µM | Kd (HLA-B*07:02; [13]): ≥ 20 µM | Kd (HLA-A*69:01; [13]): ≥ 20 µM | Kd (HLA-B*40:01; [13]): ≥ 20 µM | Kd (HLA-B*08:01; [13]): ≥ 20 µM | Kd (HLA-B*35:01; [13]): 0.0394 µM

THFQRKRRV
Kd (HLA-A*01:01; [14]): ≥ 20 µM | Kd (HLA-A*26:01; source organism: Influenza A virus(A/swine/Henan/3/2004(H9N2))): ≥ 20 µM | Kd (HLA-B*18:01): ≥ 20 µM | Kd (HLA-A*02:01; [14]): ≥ 20 µM | Kd (HLA-B*44:02; [14]): ≥ 20 µM | Kd (HLA-B*15:01; [14]): ≥ 20 µM | Kd (HLA-A*31:01; [14]): ≥ 20 µM | Kd (HLA-B*46:01): ≥ 20 µM | Kd (HLA-A*11:01; [14]): ≥ 20 µM | Kd (HLA-A*03:01; [14]): ≥ 20 µM | Kd (HLA-B*58:01 [1]; [14]): ≥ 20 µM | Kd (HLA-B*27:05; [14]): ≥ 20 µM | Kd (HLA-A*24:02): ≥ 20 µM | Kd (HLA-B*39:01): ≥ 20 µM | Kd (HLA-B*07:02; [14]): ≥ 20 µM | Kd (HLA-B*40:01; [14]): ≥ 20 µM | Kd (HLA-B*08:01; [14]): ≥ 20 µM

VMCIQMKYV
Kd (HLA-A*01:01; [15]): ≥ 20 µM | Kd (HLA-A*26:01; [15]): ≥ 20 µM | Kd (HLA-A*02:01; [15]): ≥ 20 µM | Kd (HLA-B*44:02; [15]): ≥ 20 µM | Kd (HLA-B*15:01; [15]): ≥ 20 µM | Kd (HLA-A*31:01; [15]): ≥ 20 µM | Kd (HLA-A*11:01; [15]): ≥ 20 µM | Kd (HLA-A*03:01; [15]): ≥ 20 µM | Kd (HLA-B*58:01 [1]; [15]): ≥ 20 µM | Kd (HLA-B*27:05; [15]): ≥ 20 µM | Kd (HLA-A*24:03; [15]): ≥ 20 µM | Kd (HLA-B*07:02; [15]): ≥ 20 µM | Kd (HLA-B*40:01; [15]): ≥ 20 µM | Kd (HLA-B*08:01; [15]): ≥ 20 µM | Kd (HLA-A*02:50; source organism: Variola virus): 0.0181 µM

WMDMWESPM
Kd (HLA-A*02:01; [12]): 1.01 µM | Kd (HLA-A*02:50; source organism: Escherichia coli O157:H7 str. Sakai): 0.0004 µM
